Measurements from PMC10663602.

Target: teleost IgM Fc (tFcµ): truncated teleost IgM heavy chain consisting of CHµ3, CHµ4 and the Tp (Oncorhynchus mykiss (rainbow trout))
Assay: cryo-EM structure; purified tFcµ tetramer fractions in TBS (20 mM Tris-HCl, NaCl, pH 7.8), 0.1 mg/mL on grids; map at 2.78 Å, C2 symmetry

Substance “teleost IgM Fc (tFcµ): truncated teleost IgM heavy chain consisting of CHµ3, CHµ4 and the Tp (domain or fragment)” has a stoichiometry N of 4.
